Patent US20050249730A1 (PIERRE FABRE MEDICAMENT, published 2005)

Biological target: T1, insulin receptor isoform A (IR-A) from lysates of R-/IR-A cells (UniProt P06213-2 28-1370)
T1 construct: Whole receptor in the lysate of R- fibroblasts stably transfected with IR-A cDNA
Experiment: immunoprecipitation from R-/IR-A cell lysate, SDS-PAGE, immunoblot with anti-IR beta-subunit

T1 sequence (P06213 other isoform, or with tags, fused parts or gaps limits assumed): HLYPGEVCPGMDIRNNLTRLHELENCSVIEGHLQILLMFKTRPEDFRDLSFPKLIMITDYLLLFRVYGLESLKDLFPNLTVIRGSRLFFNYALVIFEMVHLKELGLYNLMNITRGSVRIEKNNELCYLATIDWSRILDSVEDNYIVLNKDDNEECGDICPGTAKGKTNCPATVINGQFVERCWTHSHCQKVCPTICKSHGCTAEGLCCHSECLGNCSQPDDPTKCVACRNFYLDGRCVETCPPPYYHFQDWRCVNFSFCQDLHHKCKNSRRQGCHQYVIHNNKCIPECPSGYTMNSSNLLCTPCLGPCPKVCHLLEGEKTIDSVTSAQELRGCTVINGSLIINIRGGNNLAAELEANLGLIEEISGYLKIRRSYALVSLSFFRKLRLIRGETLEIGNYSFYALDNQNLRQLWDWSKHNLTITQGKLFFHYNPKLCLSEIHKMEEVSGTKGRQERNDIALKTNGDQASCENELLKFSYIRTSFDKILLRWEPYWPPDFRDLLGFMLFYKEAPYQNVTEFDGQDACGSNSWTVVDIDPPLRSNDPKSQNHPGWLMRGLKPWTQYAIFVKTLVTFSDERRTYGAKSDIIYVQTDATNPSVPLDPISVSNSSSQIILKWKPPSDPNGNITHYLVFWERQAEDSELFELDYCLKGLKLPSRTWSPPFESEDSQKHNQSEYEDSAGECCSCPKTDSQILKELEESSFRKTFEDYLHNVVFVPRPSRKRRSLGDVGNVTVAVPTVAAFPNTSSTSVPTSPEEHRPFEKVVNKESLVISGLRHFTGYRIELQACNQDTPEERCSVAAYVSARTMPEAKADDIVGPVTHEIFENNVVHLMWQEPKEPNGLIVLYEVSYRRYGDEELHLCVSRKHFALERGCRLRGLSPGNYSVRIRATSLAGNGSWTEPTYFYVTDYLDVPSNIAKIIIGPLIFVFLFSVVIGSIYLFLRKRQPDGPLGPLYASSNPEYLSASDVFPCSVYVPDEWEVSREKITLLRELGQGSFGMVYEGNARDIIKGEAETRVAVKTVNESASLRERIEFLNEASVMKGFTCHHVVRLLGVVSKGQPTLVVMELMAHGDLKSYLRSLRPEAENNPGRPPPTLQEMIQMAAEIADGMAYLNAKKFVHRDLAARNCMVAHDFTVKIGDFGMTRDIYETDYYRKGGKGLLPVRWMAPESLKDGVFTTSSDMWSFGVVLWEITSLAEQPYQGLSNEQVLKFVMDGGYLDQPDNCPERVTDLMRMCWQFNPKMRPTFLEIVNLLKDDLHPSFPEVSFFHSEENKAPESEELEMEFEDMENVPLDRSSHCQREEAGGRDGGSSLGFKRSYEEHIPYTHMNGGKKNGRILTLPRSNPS

B1: humanized antibody h7C10 (humanized form 1 of 7C10: humanized 7C10 VH 1 with humanized 7C10 VL 1) (antibody, V domains shown)
VH: QVQLQESGPGLVKPSETLSLTCTVSGYSITGGYLWNWIRQPPGKGLEWMGYISYDGTNNYKPSLKDRITISRDTSKNQFSLKLSSVTAADTAVYYCARYGRVFFDYWGQGTLVTVSS
VL: DVVMTQSPLSLPVTPGEPASISCRSSQSIVHSNGNTYLQWYLQKPGQSPQLLIYKVSNRLYGVPDRFSGSGSGTDFTLKISRVEAEDVGVYYCFQGSHVPWTFGQGTKVEIK
notes: Human IgG1/kappa; also called 7H2HM; A2CHM
binding result: no binding
